According to PMC7570111, “Iron-Sulfur Cluster Complex Assembly in the Mitochondria of Arabidopsis thaliana” (Plants, 2020):

Columns and labels:
[1] = target: AtNFS1-His6 (cysteine desulfurase AtNFS1 from Arabidopsis thaliana, mature form, His6-tagged) (Arabidopsis thaliana) (UniProt O49543)
[2] = target: AtNFS1-His6 (cysteine desulfurase AtNFS1 from Arabidopsis thaliana, mature form, His6-tagged) (Arabidopsis thaliana) (UniProt O49543); remark: listed apart in the source
AtNFS1 alone = target: T1, AtNFS1 alone (Arabidopsis thaliana, UniProt O49543); experiment: L-alanine production, ninhydrin colorimetric assay at […] nm; type: biochemical; details: no AtFH or AtISD11, 25 mM Tris-HCl pH 8, 100 mM NaCl, 10 uM PLP, 100 uM DTT, 37 °C, low activity
T1 construct: gene NIFS1; mature form, pET32a with His6 tag and TEV site, codon-optimised, E. coli expression; about 48 kDa with His6
T1 sequence (O49543 35-453): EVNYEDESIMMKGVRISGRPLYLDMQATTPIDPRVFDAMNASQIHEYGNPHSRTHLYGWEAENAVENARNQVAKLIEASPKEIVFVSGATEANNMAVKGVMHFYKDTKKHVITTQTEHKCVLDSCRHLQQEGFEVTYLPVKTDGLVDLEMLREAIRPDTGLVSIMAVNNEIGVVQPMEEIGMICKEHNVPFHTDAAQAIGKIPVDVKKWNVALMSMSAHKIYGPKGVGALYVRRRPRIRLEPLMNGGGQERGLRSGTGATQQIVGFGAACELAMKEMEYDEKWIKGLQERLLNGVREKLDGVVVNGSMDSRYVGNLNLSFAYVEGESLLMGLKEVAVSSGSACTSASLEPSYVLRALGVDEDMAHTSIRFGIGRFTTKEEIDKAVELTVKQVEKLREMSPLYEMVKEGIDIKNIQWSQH

Row | Molecule | cysteine desulfurase activity of AtNFS1 in the presence of AtFH and AtISD11 (1:1:1 molar ratio), Vmax [1] [U/mg] | attenuation of the Fenton reaction (decrease in malondialdehyde produced from dRibose, Fe(II) and H2O2) with AtFH, AtNFS1 and AtISD11 together (30 uM each); AtFH alone about 40% [2] [%] | L-alanine production, ninhydrin colorimetric assay at 565 nm (AtNFS1 alone)
1 | AtFH (frataxin from Arabidopsis thaliana, mature form, without His6 tag) (natural protein) | 47.8 | 80 | 
2 | N[C@@H](CS)C(=O)O [L-cysteine] |  |  | in the presence of its substrates, AtNFS1 alone shows low cysteine desulfurase activity
